Laboratory results from the supplement of paper PMC10724198.
± gives the standard deviation of the averaged measurements.

Test system: Saccharomyces cerevisiae
Assay: protein stability index of tFT-peptide fusion (C-terminal peptide) (PSI (0-1 scale)); higher = more stable (slower turnover)
Conditions: genetic background: wild type; temperature: 30 C
Protocol: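 Multiplexed protein stability (MPS) profiling in S. cerevisiae. Random 12-aa peptides (tFT-X12 library) are fused to the C-terminus of a sfGFP-mCherry tandem fluorescent timer, after mCherry and a GGGS linker. Cells are FACS-sorted into 8 mCherry/sfGFP bins and deep-sequenced. The protein stability index (PSI) is the read-weighted bin average, scaled from 0 (unstable) to 1 (stable). Only peptides with >10 reads are reported; cells were grown at 30 °C in SC-His with glucose.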
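Also: PSI is a weighted mean of sequencing reads over stability bins, variants kept only with over 10 reads, mCherry proximal and sfGFP distal, peptide attached via GGGS linker.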

| Sequence | protein stability index |
| --- | --- |
| FFPRVLRLRYPS | 0.754 ± 0.085 |
| FFPSFVLSFPCL | 0.641 ± 0.069 |
| FFSPFSPALYTS | 0.756 ± 0.014 |
| FFVLGRGVCLGA | 0.649 ± 0.066 |
| FFYGLHSHCAIP | 0.717 ± 0.081 |
| FGAGLTACPVSV | 0.517 ± 0.036 |
| FGAHVGWHEASP | 0.705 ± 0.018 |
| FGDPRRTDPLRL | 0.631 ± 0.04 |
| FGFWCGWFAALP | 0.689 ± 0.0094 |
| FGGRGRVASRLV | 0.763 ± 0.086 |
| FGIDVRPRPSQS | 0.698 ± 0.12 |
| FGRWVVVYRGLD | 0.625 ± 0.037 |
| FGSPFPASRFTT | 0.752 ± 0.082 |
| FGVDGVGVVVGY | 0.669 ± 0.0086 |
| FGVGGRWVVPGA | 0.733 ± 0.016 |
| FGVRTLTFISRT | 0.637 ± 0.0081 |
| FGWFDIKDSTNS | 0.7177 ± 0.0048 |
| FHARVEKQFMVM | 0.489 ± 0.031 |
| FHMPRSSPFLTG | 0.74 ± 0.054 |
| FIGWFSLMSCSV | 0.604 ± 0.026 |
| FISPSPLPPYSP | 0.665 ± 0.059 |
| FITLHGLLSRPC | 0.626 ± 0.077 |
| FITRPYKNIKNR | 0.702 ± 0.031 |
| FKRPQFFSAFFP | 0.612 ± 0.011 |
| FKVARGVHCGEG | 0.6662 ± 0.0037 |
| FLFCSYHSPLSF | 0.7 ± 0.036 |

| Sequence | protein stability index |
| --- | --- |
| FLFLSFLSSSPS | 0.745 ± 0.0088 |
| FLFLYIPFSPPR | 0.62 ± 0.02 |
| FLFSDLVCSSVF | 0.704 ± 0.027 |
| FLGAELRRLGSL | 0.703 ± 0.071 |
| FLHLGGEWGVEG | 0.683 ± 0.041 |
| FLHLTSSTPLSR | 0.794 ± 0.17 |
| FLHPPPSALVLP | 0.726 ± 0.03 |
| FLHSERTLCFIS | 0.537 ± 0.052 |
| FLLFLSSAPPAT | 0.655 ± 0.0084 |
| FLLHHVSRSPSA | 0.692 ± 0.014 |
| FLLPRFDSAFPL | 0.684 ± 0.031 |
| FLLVLPLSGLIV | 0.528 ± 0.016 |
| FLPHPSPDPLPP | 0.588 ± 0.12 |
| FLPPYSLPTPPF | 0.699 ± 0.03 |
| FLRLGLLQTFSP | 0.677 ± 0.04 |
| FLRPALACDVYN | 0.737 ± 0.05 |
| FLSLSLFPFSSL | 0.698 ± 0.024 |
| FLSRLGLVGWWG | 0.643 ± 0.036 |
| FLSTGIGKGVFL | 0.694 ± 0.035 |
| FLTAGRLYDGRV | 0.6489 ± 0.0032 |
| FLVEPSGRSATW | 0.741 ± 0.16 |
| FLWAPRWFCVGH | 0.651 ± 0.041 |
| FMFELSPVDEWA | 0.791 ± 0.043 |
| FMVIRVGGWGVL | 0.646 ± 0.094 |
| FPAPFLRVSPLW | 0.644 ± 0.048 |
| FPASLDAVTRPP | 0.722 ± 0.011 |

| Sequence | protein stability index |
| --- | --- |
| FPASPQAPPPLP | 0.65377 ± 0.00019 |
| FPATLPPSYSLI | 0.643 ± 0.017 |
| FPCRSPKLYPPL | 0.655 ± 0.011 |
| FPDTRSLPLPPG | 0.687 ± 0.011 |
| FPFSDFVFLFCF | 0.57 ± 0.011 |
| FPLPLCHSPAPP | 0.606 ± 0.027 |
| FPLPPLPPVPPP | 0.632 ± 0.059 |
| FPPPLPLSPPPP | 0.746 ± 0.085 |
| FPRLYHPNIKLP | 0.716 ± 0.13 |
| FPVTAPPRPFLF | 0.639 ± 0.014 |
| FPWFYPNHLEVP | 0.698 ± 0.063 |
| FQAPGGEIMSPS | 0.647 ± 0.012 |
| FQPPARATFLPV | 0.668 ± 0.031 |
| FRCGLDFRWYVI | 0.62 ± 0.012 |
| FRCSLLGGYTLE | 0.737 ± 0.092 |
| FRFSSTGRSFVS | 0.6917 ± 0.0029 |
| FRGPRSFRGVVW | 0.757 ± 0.08 |
| FRICSLTLSLSI | 0.5517 ± 0.0048 |
| FRISWLRVKGRG | 0.676 ± 0.035 |
| FRKTDYMVHNGI | 0.664 ± 0.015 |
| FRLNSYQNGSRV | 0.682 ± 0.043 |
| FRLQQGCSRHVG | 0.671 ± 0.015 |
| FRPCLRCLVSPF | 0.6358 ± 0.0063 |
| FRPLWLPSGSAC | 0.611 ± 0.019 |
| FRRCLCSLSLTS | 0.631 ± 0.012 |
| FRRLCRPVWSAR | 0.6749 ± 0.0038 |

| Sequence | protein stability index |
| --- | --- |
| FRYLAVSPFGGL | 0.749 ± 0.057 |
| FSAPLPPARSPS | 0.798 ± 0.11 |
| FSAPPPPSPPLS | 0.721 ± 0.053 |
| FSASSSLSPFPL | 0.707 ± 0.052 |
| FSFCQLSLASFP | 0.571 ± 0.01 |
| FSFPAPRGLLWV | 0.547 ± 0.027 |
| FSGSSCSSPFCF | 0.632 ± 0.033 |
| FSKTYTIMLITI | 0.538 ± 0.0077 |
| FSLLCGPGLRGF | 0.72 ± 0.02 |
| FSPGYPMAFSLR | 0.74 ± 0.0075 |
| FSPLLQSPLLAP | 0.692 ± 0.0089 |
| FSQLVQPSSFTS | 0.7176 ± 0.004 |
| FSRGRAVRVRRT | 0.728 ± 0.21 |
| FSSLFLSLLCPP | 0.727 ± 0.073 |
| FSSYDLISFVLV | 0.538 ± 0.0099 |
| FTISHWFSGDGE | 0.705 ± 0.015 |
| FTPLFSPVLLLP | 0.72 ± 0.12 |
| FTSPNGVRVCFH | 0.843 ± 0.02 |
| FVAGVGPLWGRR | 0.661 ± 0.031 |
| FVALCHCVRISR | 0.697 ± 0.013 |
| FVGCVNIFLSWG | 0.51 ± 0.019 |
| FVGSSFELRLPG | 0.692 ± 0.057 |
| FVGWVAMGGSVV | 0.731 ± 0.024 |
| FVLPSPRPPSMT | 0.704 ± 0.0078 |
| FVVGTFGHRRGR | 0.694 ± 0.019 |
| FWEGETVPTSEP | 0.788 ± 0.045 |

| Sequence | protein stability index |
| --- | --- |
| FWEIRSGSNHRH | 0.713 ± 0.028 |
| FWGVAPSDRVSK | 0.697 ± 0.0078 |
| FWVGGGVFGVRV | 0.747 ± 0.015 |
| FYAGELSCRHQT | 0.694 ± 0.025 |
| FYGLPSVVCGWF | 0.671 ± 0.025 |
| GAFKSRAGGGSG | 0.621 ± 0.093 |
| GAGGARRLAVGQ | 0.655 ± 0.014 |
| GAGGVWVRAWGP | 0.768 ± 0.095 |
| GAGLLRLWEVGG | 0.733 ± 0.049 |
| GAIRLSLMLLPQ | 0.686 ± 0.042 |
| GALVGFPAFFLL | 0.654 ± 0.011 |
| GALVLWTGCTYS | 0.726 ± 0.0033 |
| GAPTRSYGERKR | 0.647 ± 0.0097 |
| GARRLGLMVFDG | 0.669 ± 0.066 |
| GARRSAVPWSPK | 0.723 ± 0.018 |
| GASGGRIGEGEE | 0.679 ± 0.011 |
| GASSLGVNGGSV | 0.6954 ± 0.0021 |
| GAVAAVPRGGIL | 0.715 ± 0.018 |
| GAVHLNSLPVTK | 0.6983 ± 0.0044 |
| GAVSRRALPRRP | 0.709 ± 0.016 |
| GAVSVVFGWTDV | 0.672 ± 0.021 |
| GAVWAWRRLKGG | 0.619 ± 0.035 |
| GCASAAMFPEEL | 0.691 ± 0.053 |
| GCCGGRLWEGGG | 0.707 ± 0.013 |
| GCCWGCRIGEAV | 0.6557 ± 0.0052 |
| GCEGGGRVGSWT | 0.742 ± 0.028 |

| Sequence | protein stability index |
| --- | --- |
| GCEGGWLGEGIG | 0.593 ± 0.014 |
| GCFLSERLFTPL | 0.7304 ± 0.00085 |
| GCGAMGWAVPAA | 0.655 ± 0.041 |
| GCGEGVGASVGR | 0.641 ± 0.011 |
| GCGGLCQGGGGW | 0.704 ± 0.084 |
| GCGGVEAVGGVC | 0.586 ± 0.025 |
| GCLLVVAGGGRG | 0.698 ± 0.069 |
| GCLPGGKRESRG | 0.647 ± 0.11 |
| GCLRLCYQHWSP | 0.6764 ± 0.005 |
| GCRDQKLGVGVD | 0.759 ± 0.064 |
| GCRGEGGWVGRG | 0.6955 ± 0.0029 |
| GCRGWRSVGRGR | 0.644 ± 0.025 |
| GCRLVEGAVRLE | 0.686 ± 0.048 |
| GCRSQRSDSLMM | 0.644 ± 0.028 |
| GCSLWAVRTWGL | 0.699 ± 0.01 |
| GCSPTLMVSFIA | 0.572 ± 0.037 |
| GCVGGGWRHVGV | 0.725 ± 0.059 |
| GCVGGWCGGSGA | 0.698 ± 0.083 |
| GCWAGLGAPGVS | 0.71 ± 0.027 |
| GCWGAGESTLGG | 0.724 ± 0.0084 |
| GCWGEWGWVGRG | 0.696 ± 0.035 |
| GCWVNFLLTHFF | 0.527 ± 0.024 |
| GDASLSSLHIRL | 0.642 ± 0.02 |
| GDCIDCFKLVGI | 0.711 ± 0.035 |
| GDEDVSWLVFMG | 0.762 ± 0.024 |
